# Measurements published in publication PMC8713425 (Journal of medicinal chemistry, 2021).
# Positions count from the first letter of the chain named. In names and notes the source's numbering stands.
# B1: R4Fu-WT (wild-type RSPO4 furin domain fused to human IgG1 Fc) (Fc fusion)
# chain: VGTGLGGNCTGCIICSEENGCSTCQQRLFLFIRREGIRQYGKCLHDCPPGYFGIRGQEVNRCKKCGATCESCFSQDFCIRCKRQFYLYKGKCLPTCPPSGGGGSGGGGSGGGGS
# B2: R4Fu-Q65R (RSPO4 furin domain Q65R fused to human IgG1 Fc) (Fc fusion)
# chain: B1 chain with Q39R
# Target: LGR4 (leucine-rich repeat containing, G protein-coupled receptor 4) (UniProt Q9BXB1 25-951)
# Assay: whole-cell binding assay
row,Binder,Kd [nM]
1,B1,3.2
2,B2,6.2
